Experimental data: IntAct's records for PubMed 31515488

B1: U3 small nucleolar RNA-associated protein 14 homolog C (Homo sapiens), Q5TAP6 (parent)
chain: MNVNQVAENLALSHQEELVDLPKNYPLSENEDEGDSDGERKHQKLLEAIISLDGKNRRKLAERSEASLKVSEFSVSSEGSGEKLGLADLLEPVKTSSSLATVKKQLNRVKSKKVVELPLNKEKIEQIHREVAFSKTSQVLSKWDPIILKNQQAEQLVFPLGKEQPAIAPIEHALSGWKARTPLEQEIFNLLHKNKQPVTDPLLTPMEKASLQAMSLEEAKMHRAELQRARALQSYYEAKARKEKKIKSKKYHKVVKKGKAKKALKEFEQLQKVNPTVALEEMEKIENARMMERMSLKHQNSGKWAKSKAIMAKYDLEARQAMQEQLAKNKELTQKLQVASESEEEEGGTEVEELLVPHVANEVQMNVDGPNPWMFRSCTSDTKEAATQEDPEQVPELAAHEVSASEAEERPVAEEEILLREFEERQSLRKRSELNQDAEPASSQETKDSSSQEVLSELRALSQKLKEKHQSRKQKASSEGTVPQVQREEPAPEEAEPLLLQRSERVQTLEELEELGKEDCFQNKELPRPVLEGQQSERTPNNRPDAPKEKKEKEQLINLQNFLTTQSPSVRSLAVPTIIEELEDEEERDQRQMIKEAFAGDDVIRDFLKEKREAVEASKPKDVDLTLPGWGEWGGVGLKPSAKKRRQFLIKAPEGPPRKDKNLPNVIISEKRNIHAAAHQVQVLPYPFTHHRQFERTIQTPIGSTWNTQRAFQKLTTPKVVTKPGHIIKPIKAEDVGYQSSSRSDLPVIQRNPKRITTRHNKEEKL
B2: mRNA-decapping enzyme 1A (Homo sapiens), Q9NPI6 (parent)
chain: MEALSRAGQEMSLAALKQHDPYITSIADLTGQVALYTFCPKANQWEKTDIEGTLFVYRRSASPYHGFTIVNRLNMHNLVEPVNKDLEFQLHEPFLLYRNASLSIYSIWFYDKNDCHRIAKLMADVVEEETRRSQQAARDKQSPSQANGCSDHRPIDILEMLSRAKDEYERNQMGDSNISSPGLQPSTQLSNLGSTETLEEMPSGSQDKSAPSGHKHLTVEELFGTSLPKEQPAVVGLDSEEMERLPGDASQKEPNSFLPFPFEQLGGAPQSETLGVPSAAHHSVQPEITTPVLITPASITQSNEKHAPTYTIPLSPVLSPTLPAEAPTAQVPPSLPRNSTMMQAVKTTPRQRSPLLNQPVPELSHASLIANQSPFRAPLNVTNTAGTSLPSVDLLQKLRLTPQHDQIQTQPLGKGAMVASFSPAAGQLATPESFIEPPSKTAAARVAASASLSNMVLAPLQSMQQNQDPEVFVQPKVLSSAIPVAGAPLVTATTTAVSSVLLAPSVFQQTVTRSSDLERKASSPSPLTIGTPESQRKPSIILSKSQLQDTLIHLIKNDSSFLSTLHEVYLQVLTKNKDNHNL
B3: 1-phosphatidylinositol 4,5-bisphosphate phosphodiesterase delta-4 (Homo sapiens), Q9BRC7 (parent)
chain: MASLLQDQLTTDQDLLLMQEGMPMRKVRSKSWKKLRYFRLQNDGMTVWHARQARGSAKPSFSISDVETIRNGHDSELLRSLAEELPLEQGFTIVFHGRRSNLDLMANSVEEAQIWMRGLQLLVDLVTSMDHQERLDQWLSDWFQRGDKNQDGKMSFQEVQRLLHLMNVEMDQEYAFSLFQAADTSQSGTLEGEEFVQFYKALTKRAEVQELFESFSADGQKLTLLEFLDFLQEEQKERDCTSELALELIDRYEPSDSGKLRHVLSMDGFLSYLCSKDGDIFNPACLPIYQDMTQPLNHYFICSSHNTYLVGDQLCGQSSVEGYIRALKRGCRCVEVDVWDGPSGEPVVYHGHTLTSRILFKDVVATVAQYAFQTSDYPVILSLETHCSWEQQQTMARHLTEILGEQLLSTTLDGVLPTQLPSPEELRRKILVKGKKLTLEEDLEYEEEEAEPELEESELALESQFETEPEPQEQNLQNKDKKKKSKPILCPALSSLVIYLKSVSFRSFTHSKEHYHFYEISSFSETKAKRLIKEAGNEFVQHNTWQLSRVYPSGLRTDSSNYNPQELWNAGCQMVAMNMQTAGLEMDICDGHFRQNGGCGYVLKPDFLRDIQSSFHPEKPISPFKAQTLLIQVISGQQLPKVDKTKEGSIVDPLVKVQIFGVRLDTARQETNYVENNGFNPYWGQTLCFRVLVPELAMLRFVVMDYDWKSRNDFIGQYTLPWTCMQQGYRHIHLLSKDGISLRPASIFVYICIQEGLEGDES
partner: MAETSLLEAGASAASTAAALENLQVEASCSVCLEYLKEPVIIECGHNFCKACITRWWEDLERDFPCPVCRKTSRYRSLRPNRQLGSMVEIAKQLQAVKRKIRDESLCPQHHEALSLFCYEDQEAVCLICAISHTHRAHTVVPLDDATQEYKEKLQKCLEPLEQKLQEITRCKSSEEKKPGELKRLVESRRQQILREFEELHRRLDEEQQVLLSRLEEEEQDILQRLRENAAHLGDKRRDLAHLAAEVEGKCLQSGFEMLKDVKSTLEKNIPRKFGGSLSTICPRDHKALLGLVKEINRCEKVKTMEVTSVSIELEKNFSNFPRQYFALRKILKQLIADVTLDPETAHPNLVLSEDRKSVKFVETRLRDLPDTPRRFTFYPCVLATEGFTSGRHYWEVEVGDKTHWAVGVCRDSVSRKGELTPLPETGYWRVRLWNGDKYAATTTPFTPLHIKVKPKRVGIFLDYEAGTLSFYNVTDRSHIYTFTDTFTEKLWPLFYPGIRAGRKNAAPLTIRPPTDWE
B4: DNA replication complex GINS protein PSF2 (Homo sapiens), Q9Y248 (parent)
chain: MDAAEVEFLAEKELVTIIPNFSLDKIYLIGGDLGPFNPGLPVEVPLWLAINLKQRQKCRLLPPEWMDVEKLEKMRDHERKEETFTPMPSPYYMELTKLLLNHASDNIPKADEIRTLVKDMWDTRIAKLRVSADSFVRQQEAHAKLDNLTLMEINTSGTFLTQALNHMYKLRTNLQPLESTQSQDF

Variants of: B1
Settings: with myome_human PDE4DIP

Variant | effect of a mutation on the interaction
K247E | with no effect
I170V | with no effect

Other lines, results leading:

effect of a mutation on the interaction | Variant
with no effect | A652T
with no effect | R672H

Variants of: B2
Settings: with pnrc2_human PNRC2, Q9NPJ4
Chain of pnrc2_human PNRC2, Q9NPJ4 (Q9NPJ4 whole entry): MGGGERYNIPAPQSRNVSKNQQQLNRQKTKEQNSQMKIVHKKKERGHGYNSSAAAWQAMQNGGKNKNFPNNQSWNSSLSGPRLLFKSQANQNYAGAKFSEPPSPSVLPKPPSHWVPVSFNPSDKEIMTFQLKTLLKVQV

effect of a mutation on the interaction | Variant
with no effect | P332T
with no effect | Q474H
with no effect | A297G

Variants of: B3
Settings: with tri39_human TRIM39, Q9HCM9

effect of a mutation on the interaction | Variant
with no effect | N475K

Variants of: B4
Settings: with sld5_human GINS4, Q9BRT9
Chain of sld5_human GINS4, Q9BRT9 (Q9BRT9 whole entry): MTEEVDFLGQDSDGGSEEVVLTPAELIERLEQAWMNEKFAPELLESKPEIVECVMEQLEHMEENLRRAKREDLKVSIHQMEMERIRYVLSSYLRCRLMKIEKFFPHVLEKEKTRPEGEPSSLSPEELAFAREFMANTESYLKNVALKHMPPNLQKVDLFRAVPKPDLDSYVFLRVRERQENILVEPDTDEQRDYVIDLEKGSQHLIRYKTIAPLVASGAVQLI

effect of a mutation on the interaction | Variant
with no effect | L150S
with no effect | I26T
with no effect | D24G
